Measured values published in patent publication US20230158141A1.

Assays:
IL2Rb = target: T1, IL2Rb (UniProt P14784); assay: IP and ELISA; Cys mutant, no arm
T1 sequence (looked up): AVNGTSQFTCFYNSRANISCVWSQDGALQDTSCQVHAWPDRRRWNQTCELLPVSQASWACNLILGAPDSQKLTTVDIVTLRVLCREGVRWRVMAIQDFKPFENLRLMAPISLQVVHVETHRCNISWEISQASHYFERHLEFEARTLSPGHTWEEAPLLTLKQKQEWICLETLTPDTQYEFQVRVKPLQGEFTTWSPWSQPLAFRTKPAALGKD

IL2 receptor gamma = target: T2, IL2 receptor gamma (UniProt P31785); assay: IP and ELISA; S3 on the Cys
T2 sequence (looked up): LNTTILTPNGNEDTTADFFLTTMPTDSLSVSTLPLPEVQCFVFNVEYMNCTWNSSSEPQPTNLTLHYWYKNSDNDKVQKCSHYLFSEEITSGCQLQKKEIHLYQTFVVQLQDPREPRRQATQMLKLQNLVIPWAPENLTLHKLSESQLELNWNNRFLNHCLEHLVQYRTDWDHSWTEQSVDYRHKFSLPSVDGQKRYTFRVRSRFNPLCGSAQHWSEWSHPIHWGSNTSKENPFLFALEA

binding activity after mutation, % of native IL2 (IL2Rb)	binding activity after conjugating to S3, % of native IL2 (IL2 receptor gamma)	Substance
27%		IL2-Leu80Cys (from UniProt P60568 21-153) (ligand)
	89.7%	IL2-Thr51Cys (from UniProt P60568 21-153) (ligand)
